# Source: the Human Domainome abundance scans (Beltran et al. 2025)
# ± gives the uncertainty stated by the source.
# B1: Far upstream element-binding protein 1, residues 184 to 257; numbered along this chain, Q96AE4 (parent)
# chain: GNAVQEIMIPASKAGLVIGKGGETIKQLQERAGVKMVMIQDGPQNTGADKPLRITGDPYKVQQAKEMVLELIRD
# Variants of: B1
# Test: abundance fitness (aPCA) (normalised: wild type 0, dead -1); higher = more abundant; growth selection in yeast, the domain comes from the species named
# Conditions: Homo sapiens
row,Variant,abundance fitness
1,GNAVQEIMIPASKAGLVIGKGGETIKQLQERAGVKMVMIQDGPQNTGADKPLRITGDPYKVQQAKEMNLELIRD,-0.385 ± 0.047
2,GNAVQEIMIPASKAGLVIGKGGETIKQLQERAGVKMVMIQDGPQNTGADKPLRITGDPYKVQQAKEMWLELIRD,-0.963 ± 0.061
3,GNAVQEIMIPASKAGLVIGKGGETIKQLQERAGVKMVMIQDGPQNTGADKPLRITGDPYKVQQAKEMMLELIRD,-0.156 ± 0.034
4,GNAVQEIMIPASKAGLVIGKGGETIKQLQERAGVKMVMIQDGPQNTGADKPLRITGDPYKVQQAKEMQLELIRD,-0.441 ± 0.044
5,GNAVQEIMIPASKAGLVIGKGGETIKQLQERAGVKMVMIQDGPQNTGADKPLRITGDPYKVQQAKEMLLELIRD,-0.154 ± 0.032
6,GNAVQEIMIPASKAGLVIGKGGETIKQLQERAGVKMVMIQDGPQNTGADKPLRITGDPYKVQQAKEMALELIRD,-0.221 ± 0.033
7,GNAVQEIMIPASKAGLVIGKGGETIKQLQERAGVKMVMIQDGPQNTGADKPLRITGDPYKVQQAKEMYLELIRD,-0.753 ± 0.067
8,GNAVQEIMIPASKAGLVIGKGGETIKQLQERAGVKMVMIQDGPQNTGADKPLRITGDPYKVQQAYEMVLELIRD,-0.11 ± 0.054
9,GNAVQEIMIPASKAGLVIGKGGETIKQLQERAGVKMVMIQDGPQNTGADKPLRITGDPYKVQQANEMVLELIRD,-0.129 ± 0.046
10,GNAVQEIMIPASKAGLVIGKGGETIKQLQERAGVKMVMIQDGPQNTGADKPLRITGDPYKVQQAGEMVLELIRD,-0.086 ± 0.028
11,GNAVQEIMIPASKAGLVIGKGGETIKQLQERAGVKMVMIQDGPQNTGADKPLRITGDPYKVQQAPEMVLELIRD,-0.709 ± 0.043
12,GNAVQEIMIPASKAGLVIGKGGETIKQLQERAGVKMVMIQDGPQNTGADKPLRITGDPYKVQQAMEMVLELIRD,-0.07 ± 0.038
13,GNAVQEIMIPASKAGLVIGKGGETIKQLQERAGVKMVMIQDGPQNTGADKPLRITGDPYKVQQAHEMVLELIRD,-0.056 ± 0.047
14,GNAVQEIMIPASKAGLVIGKGGETIKQLQERAGVKMVMIQDGPQNTGADKPLRITGDPYKVQQASEMVLELIRD,-0.102 ± 0.03
15,GNAVQEIMIPASKAGLVIGKGGETIKQLQERAGVKMVMIQDGPQNTGADKPLRITGDPYKVQQAWEMVLELIRD,-0.439 ± 0.038
16,GNAVQEIMIPASKAGLVIGKGGETIKQLQERAGVKMVMIQDGPQNTGADKPLRITGDPYKVQQAIEMVLELIRD,-0.049 ± 0.048
17,GNAVQEIMIPASKAGLVIGKGGETIKQLQERAGVKMVMIQDGPQNTGADKPLRITGDPYKVQQAREMVLELIRD,-0.012 ± 0.027
18,GNAVQEIMIPASKAGLVIGKGGETIKQLQERAGVKMVMIQDGPQNTGADKPLRITGDPYKVQQATEMVLELIRD,-0.057 ± 0.034
19,GNAVQEIMIPASKAGLVIGKGGETIKQLQERAGVKMVMIQDGPQNTGADKPLRITGDPYKVQQAVEMVLELIRD,-0.037 ± 0.031

row,Variant,abundance fitness
1,GNAVQEIMIPASKAGLVIGKGGETIKQLQERAGVKMVMIQDGPQNTGADKPLRITGDPYKVQQALEMVLELIRD,-0.211 ± 0.03
2,GNAVQEIMIPASKAGLVIGKGGETIKQLQERAGVKMVMIQDGPQNTGADKPLRITGDPYKVQQAKNMVLELIRD,-0.048 ± 0.043
3,GNAVQEIMIPASKAGLVIGKGGETIKQLQERAGVKMVMIQDGPQNTGADKPLRITGDPYKVQQAKAMVLELIRD,-0.091 ± 0.032
4,GNAVQEIMIPASKAGLVIGKGGETIKQLQERAGVKMVMIQDGPQNTGADKPLRITGDPYKVQQAKQMVLELIRD,-0.07 ± 0.036
5,GNAVQEIMIPASKAGLVIGKGGETIKQLQERAGVKMVMIQDGPQNTGADKPLRITGDPYKVQQAKKMVLELIRD,-0.007 ± 0.032
6,GNAVQEIMIPASKAGLVIGKGGETIKQLQERAGVKMVMIQDGPQNTGADKPLRITGDPYKVQQAKWMVLELIRD,-0.167 ± 0.032
7,GNAVQEIMIPASKAGLVIGKGGETIKQLQERAGVKMVMIQDGPQNTGADKPLRITGDPYKVQQAKVMVLELIRD,-0.072 ± 0.03
8,GNAVQEIMIPASKAGLVIGKGGETIKQLQERAGVKMVMIQDGPQNTGADKPLRITGDPYKVQQAKCMVLELIRD,-0.106 ± 0.039
9,GNAVQEIMIPASKAGLVIGKGGETIKQLQERAGVKMVMIQDGPQNTGADKPLRITGDPYKVQQAKDMVLELIRD,-0.002 ± 0.037
10,GNAVQEIMIPASKAGLVIGKGGETIKQLQERAGVKMVMIQDGPQNTGADKPLRITGDPYKVQQAKPMVLELIRD,-0.476 ± 0.049
11,GNAVQEIMIPASKAGLVIGKGGETIKQLQERAGVKMVMIQDGPQNTGADKPLRITGDPYKVQQAKHMVLELIRD,-0.165 ± 0.051
12,GNAVQEIMIPASKAGLVIGKGGETIKQLQERAGVKMVMIQDGPQNTGADKPLRITGDPYKVQQAKLMVLELIRD,-0.092 ± 0.032
13,GNAVQEIMIPASKAGLVIGKGGETIKQLQERAGVKMVMIQDGPQNTGADKPLRITGDPYKVQQAKFMVLELIRD,-0.18 ± 0.046
14,GNAVQEIMIPASKAGLVIGKGGETIKQLQERAGVKMVMIQDGPQNTGADKPLRITGDPYKVQQAKMMVLELIRD,-0.08 ± 0.036
15,GNAVQEIMIPASKAGLVIGKGGETIKQLQERAGVKMVMIQDGPQNTGADKPLRITGDPYKVQQAKIMVLELIRD,-0.224 ± 0.048
16,GNAVQEIMIPASKAGLVIGKGGETIKQLQERAGVKMVMIQDGPQNTGADKPLRITGDPYKVQQAKRMVLELIRD,-0.081 ± 0.026
17,GNAVQEIMIPASKAGLVIGKGGETIKQLQERAGVKMVMIQDGPQNTGADKPLRITGDPYKVQQAKGMVLELIRD,-0.046 ± 0.027
18,GNAVQEIMIPASKAGLVIGKGGETIKQLQERAGVKMVMIQDGPQNTGADKPLRITGDPYKVQQAKTMVLELIRD,-0.03 ± 0.034
